Data published in patent US20260049138A1 (Chugai, published 2026).
Changes are numbered by the printed parent chain. In names and notes the source's numbering stands.

Molecular target: T1, CD3ε homodimer protein (human, UniProt P07766 23-126, limits assumed)
T1 construct: also called CD3 (CD3ε)
Assay: SPR Biacore T200, CD3ε homodimer on chip;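 also: Light-chain single-residue variant antibodies injected over amine-coupled CD3ε homodimer on a CM4 chip at 25 °C, bound amount divided by that of the GLS3000-containing antibody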

T1 sequence (P07766 23-126 limits assumed): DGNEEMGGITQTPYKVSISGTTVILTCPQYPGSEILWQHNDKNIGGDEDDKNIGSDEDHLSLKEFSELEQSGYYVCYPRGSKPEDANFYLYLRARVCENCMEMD

B1: GLS3000 T92P one-arm antibody (antibody, human IgG1, kappa, L234A L235A, N297A, name in Kabat numbering)
heavy: QVQLVESGGGVVQPGRSLRLSCAASGFTFSNAWMHWVRQAPGKGLEWVAQIKAKSNNYATYYAESVKGRFTISRDDSKNSLYLQMNSLKTEDTAVYYCRYVHYGAYYGVDAWGQGTTVTVSSASTKGPSVFPLAPSSKSTSGGTAALGCLVKDYFPEPVTVSWNSGALTSGVHTFPAVLQSSGLYSLSSVVTVPSSSLGTQTYICNVNHKPSNTKVDKKVEPKSCDKTHTCPPCPAPEAAGGPSVFLFPPKPKDTLMISRTPEVTCVVVDVSHEDPEVKFNWYVDGVEVHNAKTKPREEQYASTYRVVSVLTVLHQDWLNGKEYKCKVSNKALPAPIEKTISKAKGQPREPQVYTLPPSRCELTKNQVSLSCAVKGFYPSDIAVEWESNGQPENNYKTTPPVLDSDGSFFLVSKLTVDKSRWQQGNVFSCSVMHEALHNHYTQKSLSLSPDYKDDDDK
chain: EPKSSDKTHTCPPCPAPELLGGPSVFLFPPKPKDTLMISRTPEVTCVVVDVSHEDPEVKFNWYVDGVEVHNAKTKPREEQYNSTYRVVSVLTVLHQDWLNGKEYKCKVSNKALPAPIEKTISKAKGQPREPQVCTLPPSRDELTKNQVSLWCLVKGFYPSDIAVEWESNGQPENNYKTTPPVLDSDGSFFLYSKLTVDKSRWQQGNVFSCSVMHEALHNRYTQKSLSLSP
light: DIVMTQSPLSLPVTPGEPASISCRSSQSLVHSNRNTYLHWYQQKPGQAPRLLIYKVSNRFSGVPDRFSGSGSGTDFTLKISRVEAEDVGVYYCGQGPQVPYTFGQGTKLEIKRTVAAPSVFIFPPSDEQLKSGTASVVCLLNNFYPREAKVQWKVDNALQSGNSQESVTEQDSKDSTYSLSSTLTLSKADYEKHKVYACEVTHQGLSSPVTKSFNRGEC
With B1 the “ratio of amount bound vs unaltered GLS3000” value (from here on “ratio of amount bound”) was 0.26.

B2: GLS3000 T92S one-arm antibody (antibody, human IgG1, kappa, L234A L235A, N297A, name in Kabat numbering)
heavy: B1 heavy
chain: B1 chain
light: B1 light with P97S
For B2, the “ratio of amount bound” value was 0.96.

B3: GLS3000 T92Y one-arm antibody (antibody, human IgG1, kappa, L234A L235A, N297A, name in Kabat numbering)
heavy: B1 heavy
chain: B1 chain
light: B1 light with P97Y
B3 was tested, and the “ratio of amount bound” value was 0.33.

B4: GLS3000 T97P one-arm antibody (antibody, human IgG1, kappa, L234A L235A, N297A, name in Kabat numbering)
heavy: B1 heavy
chain: B1 chain
light: B1 light with P97T, T102P
B4 was tested, and the “ratio of amount bound” value was 0.31.

B5: GLS3000 V27cD one-arm antibody (antibody, human IgG1, kappa, L234A L235A, N297A, name in Kabat numbering)
heavy: B1 heavy
chain: B1 chain
light: B1 light with V30D, P97T
In the case of B5, the “ratio of amount bound” value is reported as 0.32.

B6: GLS3000 V27cE one-arm antibody (antibody, human IgG1, kappa, L234A L235A, N297A, name in Kabat numbering)
heavy: B1 heavy
chain: B1 chain
light: B1 light with V30E, P97T
In the case of B6, the “ratio of amount bound” value is reported as 0.61.

B7: GLS3000 V27cI one-arm antibody (antibody, human IgG1, kappa, L234A L235A, N297A, name in Kabat numbering)
heavy: B1 heavy
chain: B1 chain
light: B1 light with V30I, P97T
With B7 the “ratio of amount bound” value was 0.96.

B8: GLS3000 V27cL one-arm antibody (antibody, human IgG1, kappa, L234A L235A, N297A, name in Kabat numbering)
heavy: B1 heavy
chain: B1 chain
light: B1 light with V30L, P97T
With B8 the “ratio of amount bound” value was 0.84.

B9: GLS3000 V27cP one-arm antibody (antibody, human IgG1, kappa, L234A L235A, N297A, name in Kabat numbering)
heavy: B1 heavy
chain: B1 chain
light: B1 light with V30P, P97T
With B9 the “ratio of amount bound” value was 0.3.

B10: GLS3000 V27cS one-arm antibody (antibody, human IgG1, kappa, L234A L235A, N297A, name in Kabat numbering)
heavy: B1 heavy
chain: B1 chain
light: B1 light with V30S, P97T
With B10 the “ratio of amount bound” value was 0.51.
